Results on 1 molecule are retold here after patent US20140017255A1 (E R SQUIBB AND SONS L L C, published 2014).

Test [1] deals with T1, human BTLA expressed on CHO cells (human, UniProt Q7Z6A9 31-289).
T1 construct: also called CHO/huBTLA; hBTLA
The test can be described thus: flow cytometry, antibody titrated on CHO cells expressing human BTLA, PE-anti-huFc detection, FL2 GMFI.

The target of test [2] is T2, cynomolgus BTLA (cynomolgus, UniProt A0A2K5W7M7 31-289).
T2 construct: whole, on cells; also called cyno BTLA; monkey BTLA
T2 sequence: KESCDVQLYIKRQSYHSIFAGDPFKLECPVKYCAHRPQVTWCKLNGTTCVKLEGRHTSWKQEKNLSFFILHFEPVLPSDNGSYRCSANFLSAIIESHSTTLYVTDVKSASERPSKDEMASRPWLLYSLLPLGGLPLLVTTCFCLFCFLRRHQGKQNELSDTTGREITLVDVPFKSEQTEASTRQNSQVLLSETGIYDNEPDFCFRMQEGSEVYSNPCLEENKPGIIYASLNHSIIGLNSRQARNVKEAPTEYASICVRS
The test can be described thus: flow cytometry, antibody titrated on CHO cells expressing cynomolgus BTLA, PE-anti-huFc detection, FL2 GMFI. (In flow cytometry, cells or beads pass a laser one at a time.)

T1 sequence (Q7Z6A9 other isoform, or with tags, fused parts or gaps limits assumed): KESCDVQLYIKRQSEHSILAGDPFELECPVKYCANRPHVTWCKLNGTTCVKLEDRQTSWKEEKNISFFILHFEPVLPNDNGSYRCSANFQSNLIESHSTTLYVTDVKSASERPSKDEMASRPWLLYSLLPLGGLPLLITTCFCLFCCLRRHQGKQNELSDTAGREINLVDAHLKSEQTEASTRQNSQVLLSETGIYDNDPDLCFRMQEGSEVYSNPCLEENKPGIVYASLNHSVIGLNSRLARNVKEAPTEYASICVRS

B1: hu Mab8D5 (IgG4 version, fully human monoclonal agonist anti-BTLA antibody) (antibody, V domains shown, not shown: a dimerising Fc or GST)
VH: EVQLVESGGGLVQPGGSLRLSCAASGFTISSYDMHWVRQATGKGLEWVSVIGPAGDTYYPGSVKGRFTISRENAKNSLYLQMNSLRAGDTAVYYCAREGMAAHNYYGMDVWGQGTTVTVSS
VL: not shown
notes: also called hu Mab8D5 G4; 8D5 (G4) agonist
A word on the EC50: it is the concentration giving half of the maximal effect. Lower therefore signals a more potent agent. Take B1: the values for the EC50 in test [1] and in test [2] were 12.4 nM and 13.6 nM, respectively.
